# Measurements taken from patent US20230127047A1, “SELECTIVE GIP RECEPTOR AGONISTS COMPRISING A CHELATING MOIETY FOR IMAGING AND THERAPY PURPOSES” (ANTAROS MEDICAL AB, priority 2020, published 2023).
# Where no end group is shown, it is not given here. [ ]: non-standard residue; d: D form. The star is where a group is joined. DO3A(CH2CH2SO2CH2CH2) = O=C(O)CN1CCN(CCS(=O)(=O)CC*)CCN(CC(=O)O)CCN(CC(=O)O)CC1; DOTA = O=C(O)CN1CCN(CC(=O)O)CCN(CC(=O)*)CCN(CC(=O)O)CC1; Aib = CC(C)(N)C(=O)O
# T1: human GIP receptor (human, UniProt P48546 22-466)
# T1 sequence (looked up): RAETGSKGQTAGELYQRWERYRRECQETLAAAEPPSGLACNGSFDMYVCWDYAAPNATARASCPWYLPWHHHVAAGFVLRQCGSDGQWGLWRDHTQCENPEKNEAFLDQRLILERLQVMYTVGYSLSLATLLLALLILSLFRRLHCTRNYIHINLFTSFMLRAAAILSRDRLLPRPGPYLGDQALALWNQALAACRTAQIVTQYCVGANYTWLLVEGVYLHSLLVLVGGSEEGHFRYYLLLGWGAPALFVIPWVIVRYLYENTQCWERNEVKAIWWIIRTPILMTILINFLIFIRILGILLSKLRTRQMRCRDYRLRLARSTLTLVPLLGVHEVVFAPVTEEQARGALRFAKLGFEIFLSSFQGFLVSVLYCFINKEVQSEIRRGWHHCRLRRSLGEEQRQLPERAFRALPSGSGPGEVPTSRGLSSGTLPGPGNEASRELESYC
# How the values were obtained:
# [1] = target: human GLP-1 receptor (hGLP-1R) (Homo sapiens, UniProt P43220); assay: cAMP response (HTRF) in PSC-HEK-293 cells expressing human GLP-1 receptor; assay type: cell-based
# Sequence of human GLP-1 receptor (hGLP-1R) (P43220 24-463): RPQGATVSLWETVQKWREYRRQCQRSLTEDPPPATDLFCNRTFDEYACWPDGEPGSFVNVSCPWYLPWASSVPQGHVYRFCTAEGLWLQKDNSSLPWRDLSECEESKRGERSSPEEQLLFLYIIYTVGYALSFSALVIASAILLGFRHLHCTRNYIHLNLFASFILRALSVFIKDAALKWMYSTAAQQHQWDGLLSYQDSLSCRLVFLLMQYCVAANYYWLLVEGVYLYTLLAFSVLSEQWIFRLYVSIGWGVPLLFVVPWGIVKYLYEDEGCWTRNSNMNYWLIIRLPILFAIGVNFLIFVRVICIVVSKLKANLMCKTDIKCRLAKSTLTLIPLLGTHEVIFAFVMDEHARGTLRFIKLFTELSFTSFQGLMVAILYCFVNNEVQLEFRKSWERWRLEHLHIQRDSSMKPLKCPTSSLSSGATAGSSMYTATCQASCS
# Experimental: (§1) Each vial contained 1.8 ml cells. The vials were slowly frozen to −80° C. in isopropanol, and then transferred in liquid nitrogen for storage.
# (§2) Prior to their use, frozen cells were thawed quickly at 37° C. and washed (5 min at 900 rpm) with 20 ml cell buffer (lx HBSS; 20 mM HEPES, with 0.1% BSA).
# (§3) For measurement of cAMP generation, 5 μl cells (final 5000 cells/well) and 5 μl of test compound were added to a 384-well plate, followed by incubation for 30 min at room temperature.
# (§4) The cAMP generated was determined using a kit from Cisbio Corp. based on HTRF (Homogenous Time Resolved Fluorescence). The cAMP assay was performed according to manufacturer's instructions (Cisbio).
# (§5) cAMP content of cells was determined using a kit from Cisbio Corp. (cat. no. 62AM4PEC) based on HTRF (Homogenous Time Resolved Fluorescence). […] Medium was then removed and cells washed with PBS lacking calcium and magnesium, followed by proteinase treatment with accutase (Sigma-Aldrich cat. no. A6964). Detached cells were washed and resuspended in assay buffer (1×HBSS; 20 mM HEPES, 0.1% BSA, 2 mM IBMX) and cellular density determined. They were then diluted to 400000 cells/ml and 25 μl-aliquots dispensed into the wells of 96-well plates. For measurement, 25 μl of test compound in assay buffer was added to the wells, followed by incubation for 30 minutes at room temperature.
# [2] = target: T2, glucagon receptor (hGCGR) (Homo sapiens, UniProt P47871); assay: cAMP response (HTRF) in PSC-HEK-293 cells expressing human glucagon receptor; assay type: cell-based
# T2 construct: expressed in transfected cells
# T2 sequence (P47871 26-477): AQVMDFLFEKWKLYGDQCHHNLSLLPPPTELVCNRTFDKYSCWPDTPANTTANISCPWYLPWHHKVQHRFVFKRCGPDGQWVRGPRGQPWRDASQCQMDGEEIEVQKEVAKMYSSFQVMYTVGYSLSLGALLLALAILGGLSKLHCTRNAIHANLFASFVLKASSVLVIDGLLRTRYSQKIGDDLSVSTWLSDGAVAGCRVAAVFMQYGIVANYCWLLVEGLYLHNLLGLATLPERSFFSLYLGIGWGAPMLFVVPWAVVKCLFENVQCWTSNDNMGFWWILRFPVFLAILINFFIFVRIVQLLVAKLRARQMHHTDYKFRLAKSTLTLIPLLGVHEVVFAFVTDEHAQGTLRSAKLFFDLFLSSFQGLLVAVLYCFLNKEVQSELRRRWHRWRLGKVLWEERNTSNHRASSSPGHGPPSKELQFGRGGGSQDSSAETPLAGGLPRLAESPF
# Experimental: as §1, §2, §3, §4, §5
# human GLP-1 receptor = human GLP-1 receptor (human, UniProt P43220 24-463); assay: cell-based or functional assay
# human GIP receptor [3] = target: T1, human GIP receptor; assay: cell-based or functional assay
# human glucagon receptor = human glucagon receptor (human, UniProt P47871 26-477); assay: cell-based or functional assay
# Sequence of human glucagon receptor (P47871 26-477): as above
# human GIP receptor [4] = target: T1, human GIP receptor; assay: [125I]GIP displacement, SPA beads with hGIPR HEK-293 membranes
# human GIP receptor [5] = target: T1, human GIP receptor; assay: [125I]GIP displacement IC50, reference GIP(1-30) (SEQ ID NO: 2)
# human GIP receptor [6] = target: T1, human GIP receptor; assay: [125I]GIP displacement IC50, reference native GIP (SEQ ID NO: 1)
Molecule,"EC50 hGLP-1 R, cAMP formation (HTRF), 96-well format (human GLP-1 receptor) [nM]","EC50 hGIP R, cAMP formation (HTRF), 96-well format (human GIP receptor [3]) [nM]","EC50 hGCGR, cAMP formation (HTRF), 96-well format (human glucagon receptor) [nM]",IC50 (human GIP receptor [4]) [nM],fold improvement of binding affinity against GIP(1-30) (human GIP receptor [5]) [fold],fold improvement of binding affinity against native GIP (human GIP receptor [6]) [fold],"EC50 hGCGR, cAMP formation (HTRF), 384-well format (human glucagon receptor) [nM]",further results
"CC[C@H](C)[C@H](NC(=O)[C@H](CO)NC(=O)[C@H](Cc1ccc(O)cc1)NC(=O)[C@H](CC(=O)O)NC(=O)[C@H](CO)NC(=O)[C@@H](NC(=O)[C@H](Cc1ccccc1)NC(=O)[C@@H](NC(=O)CNC(=O)[C@H](CCC(=O)O)NC(=O)[C@H](C)NC(=O)[C@@H](N)Cc1ccc(O)cc1)[C@@H](C)O)[C@@H](C)CC)C(=O)N[C@@H](C)C(=O)N[C@@H](CCSC)C(=O)N[C@@H](CC(=O)O)C(=O)N[C@@H](CCCCN)C(=O)N[C@H](C(=O)N[C@@H](Cc1c[nH]cn1)C(=O)N[C@@H](CCC(N)=O)C(=O)N[C@@H](CCC(N)=O)C(=O)N[C@@H](CC(=O)O)C(=O)N[C@@H](Cc1ccccc1)C(=O)N[C@H](C(=O)N[C@@H](CC(N)=O)C(=O)N[C@@H](Cc1c[nH]c2ccccc12)C(=O)N[C@@H](CC(C)C)C(=O)N[C@@H](CC(C)C)C(=O)N[C@@H](C)C(=O)N[C@@H](CCC(N)=O)C(=O)N[C@@H](CCCCN)C(N)=O)C(C)C)[C@@H](C)CC [SEQ ID NO: 2, YAEGTFISDYSIAMDKIHQQDFVNWLLAQK-NH2]",,,,,,,,EC50 [1]: > 10 nM; EC50 [2]: > 10 nM
"H-Y[Aib]EGTFISDLSIALDRIHQEEFIEWLLAGGK(DOTA)-NH2 (also: Ga3+ complexed in DOTA on Lys31, also called Ga-S02-GIP-T4) [SEQ ID NO: 4 (GIP(1-30) analog with K(DOTA(Ga)) at position 31)]",> 10,0.00109,> 10,0.25,~5,~12,,
"Y[Aib]EGTFISDLSIALDRIHQEEFIQWLLAGGC(DO3A(CH2CH2SO2CH2CH2))-NH2 (Printed: Y-Aib-EGTFISDLSIALDRIHQEEFIQWLLAGGC(VS-DO3A)-NH2) [SEQ ID NO: 5 (GIP(1-30) analog with C(VS-DO3A) at position 31, unloaded)]",,,,0.22,~5,~12,> 10,"EC50 hGLP-1 R, cAMP formation (HTRF), 384-well format (human GLP-1 receptor): > 10 nM; EC50 hGIP R, cAMP formation (HTRF), 384-well format (human GIP receptor [3]): 0.00022 nM"
"Y[Aib]EGTFISDLSIALDRIHQEEFIEWLLAGGK(DOTA)-NH2 [SEQ ID NO: 3 (GIP(1-30) analog with K(DOTA) at position 31, unloaded)]",> 10,0.00113,> 10,,,,,
"YAEGTFISDYSIAMDKIHQQDFVNWLLAQKGKKNDWKHNITQ-OH (ligand) [GIP (glucose-dependent insulinotropic polypeptide), SEQ ID NO: 1]",,,> 10,,,,> 10,
"YAEGTFISDYSIAMDKIHQQDFVNWLLAQK-NH2 (ligand) [GIP(1-30) amide, SEQ ID NO: 2]",> 10,,> 10,,,,,
